Results taken from the supplement of paper PMC10567573.

B1: ANKRD17 (parent)
chain: EMVRFLLEAGADQEHKTDEMHTAL
B2: DLC1 (parent)
chain: AEVVKIRDSFSNQNTETKDTKSR

Variants of: B1
Test: protein stability index of a GFP-peptide fusion (GPS, HEK-293T) (PSI 1-6); higher = more stable
Details: c terminus: a fixed tail appended
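Note: lentivirally expressed fusions sorted by FACS into six bins by GFP to DsRed ratio, PSI derived from sequencing read proportions per bin multiplied by bin number.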

Going from A11Y to E19Y, the protein stability index falls from 2.01 to 1.6.

First: E19G
Second: M20Q
The protein stability index of the first is lower: 1.71 for the first, 3 for the second.

First: M20S
Second: M20V
The protein stability index of the first is higher: 3.45 for the first, 2.84 for the second.

Compared with A23P, A23E is lower in protein stability index: 3.12 for the first, 2.91 for the second.

Going from A23M to Q13C, the protein stability index rises from 2.7 to 3.28.

Compared with T17A, T17C is higher in protein stability index: 2.45 for the first, 2.5 for the second.

Compared with E8Y, E8L is higher in protein stability index: 1.78 for the first, 2.52 for the second.

First: R4P
Second: H15D
The protein stability index of the first is higher: 4.8 for the first, 3.33 for the second.

Going from G10F to L7D, the protein stability index rises from 2.18 to 5.07.

First: V3R
Second: D12T
The protein stability index of the first is higher: 4.56 for the first, 2.21 for the second.

First: M2Y
Second: A9G
The protein stability index of the first is higher: 2.81 for the first, 2.8 for the second.

Going from L24P to L24N, the protein stability index rises from 2.4 to 3.03.

Going from L24M to F5A, the protein stability index rises from 2.37 to 3.9.

First: F5W
Second: F5T
The protein stability index of the first is lower: 2.26 for the first, 4.38 for the second.

First: F5S
Second: F5D
The protein stability index of the first is lower: 4.56 for the first, 4.92 for the second.

Compared with D18N, D18M is lower in protein stability index: 2.51 for the first, 2.1 for the second.

Going from D18K to T22I, the protein stability index falls from 2.47 to 1.93.

First: T22E
Second: T22S
The protein stability index of the first is higher: 3.42 for the first, 2.98 for the second.

Variant E14V has a protein stability index of 1.82.

Variants of: B2
Test: as above
Details: c terminus: native

Compared with D19K, D19E is higher in protein stability index: 1.85 for the first, 2.31 for the second.

First: D19I
Second: D19F
The protein stability index of the first is higher: 2.29 for the first, 1.92 for the second.

First: D19Y
Second: D19W
The protein stability index of the first is higher: 2.69 for the first, 1.45 for the second.

Going from D19L to D19A, the protein stability index falls from 2.1 to 1.79.

First: D19Q
Second: D19M
The protein stability index of the first is higher: 1.99 for the first, 1.95 for the second.

Going from D19T to D19V, the protein stability index falls from 3.09 to 1.91.

First: D19P
Second: D19G
The protein stability index of the first is higher: 3.03 for the first, 2 for the second.

First: D19H
Second: D19R
The protein stability index of the first is higher: 2.07 for the first, 1.84 for the second.

Compared with D19S, D19C is lower in protein stability index: 2.19 for the first, 1.83 for the second.

First: D19N
Second: T20H
The protein stability index of the first is higher: 3.63 for the first, 2.09 for the second.

Compared with T20K, T20L is lower in protein stability index: 4.33 for the first, 2.71 for the second.

Compared with T20C, T20R is higher in protein stability index: 1.93 for the first, 4.41 for the second.

Going from T20N to T20I, the protein stability index falls from 3.98 to 2.7.

Going from T20S to T20E, the protein stability index falls from 1.79 to 1.64.

Going from T20P to T20D, the protein stability index falls from 2.88 to 2.23.

Going from T20F to T20G, the protein stability index rises from 1.36 to 2.51.

Going from T20Y to T20V, the protein stability index rises from 2.1 to 2.61.

Going from T20M to T20A, the protein stability index falls from 1.96 to 1.79.

Going from T20Q to T17Q, the protein stability index rises from 2.42 to 2.61.

Compared with T17D, T17C is higher in protein stability index: 1.83 for the first, 2.11 for the second.

First: T17W
Second: T17F
The protein stability index of the first is higher: 3.5 for the first, 2.54 for the second.

Going from T17G to T17I, the protein stability index falls from 4.08 to 2.41.

First: T17V
Second: T17M
The protein stability index of the first is lower: 1.26 for the first, 2.68 for the second.

Going from T17K to T17L, the protein stability index rises from 2.17 to 2.34.

First: T17E
Second: T17A
The protein stability index of the first is higher: 2.43 for the first, 2.22 for the second.

Compared with T17R, T17N is higher in protein stability index: 1.84 for the first, 1.86 for the second.

Compared with T17H, T17P is higher in protein stability index: 1.73 for the first, 2.97 for the second.

Going from T17Y to S22W, the protein stability index rises from 2.31 to 3.96.

First: S22K
Second: S22Q
The protein stability index of the first is lower: 2.92 for the first, 3.03 for the second.

First: S22C
Second: S22I
The protein stability index of the first is lower: 1.82 for the first, 3.14 for the second.

Going from S22L to S22P, the protein stability index rises from 3.48 to 4.53.

Going from S22Y to S22E, the protein stability index rises from 3.36 to 3.8.

First: S22H
Second: S22N
The protein stability index of the first is higher: 3.48 for the first, 2.88 for the second.

Compared with S22D, S22A is lower in protein stability index: 3.23 for the first, 1.93 for the second.

First: S22F
Second: S22V
The protein stability index of the first is higher: 4.11 for the first, 2.98 for the second.

Going from S22R to S22G, the protein stability index falls from 2.75 to 1.89.

First: S22T
Second: S22M
The protein stability index of the first is lower: 3.04 for the first, 4.06 for the second.

Compared with K18A, K18T is higher in protein stability index: 1.17 for the first, 2.2 for the second.

Compared with K18Y, K18M is lower in protein stability index: 1.94 for the first, 1.91 for the second.

Compared with K18E, K18G is higher in protein stability index: 1.7 for the first, 2.13 for the second.

Going from K18Q to K18P, the protein stability index rises from 1.84 to 2.15.

Compared with K18H, K18F is lower in protein stability index: 2.98 for the first, 2.59 for the second.

Going from K18L to K18W, the protein stability index falls from 3.07 to 2.05.

First: K18R
Second: K18D
The protein stability index of the first is higher: 1.5 for the first, 1.39 for the second.

K18S and K18N are the same in protein stability index: 1.98 for the first, 1.98 for the second.

Going from K18V to K18I, the protein stability index falls from 2.32 to 2.26.

First: K18C
Second: K21R
The protein stability index of the first is higher: 2.84 for the first, 1.71 for the second.

Compared with K21C, K21A is higher in protein stability index: 4.39 for the first, 5.24 for the second.

First: K21P
Second: K21L
The protein stability index of the first is lower: 3.51 for the first, 4.19 for the second.

Going from K21Q to K21F, the protein stability index falls from 4.95 to 4.8.

Compared with K21E, K21I is lower in protein stability index: 5.2 for the first, 4.85 for the second.

Compared with K21T, K21Y is lower in protein stability index: 4.87 for the first, 3.57 for the second.

First: K21N
Second: K21S
The protein stability index of the first is higher: 5.59 for the first, 5.01 for the second.

Going from K21H to K21W, the protein stability index rises from 2.96 to 3.92.

Compared with K21D, K21V is lower in protein stability index: 5.42 for the first, 4.89 for the second.

Going from K21M to K21G, the protein stability index rises from 4.99 to 5.44.

Going from R23P to R23D, the protein stability index rises from 5.32 to 5.6.

Compared with R23A, R23I is lower in protein stability index: 5.57 for the first, 4.91 for the second.

Going from R23V to R23F, the protein stability index falls from 5.51 to 4.83.

Going from R23Q to R23H, the protein stability index falls from 5.65 to 5.37.

Compared with R23G, R23C is lower in protein stability index: 4.84 for the first, 4.75 for the second.

Going from R23Y to R23N, the protein stability index rises from 4.56 to 5.26.

Compared with R23E, R23M is lower in protein stability index: 5.85 for the first, 5.38 for the second.

First: R23L
Second: R23T
The protein stability index of the first is lower: 5.49 for the first, 5.55 for the second.

Going from R23W to R23K, the protein stability index rises from 3.23 to 5.49.
